Measured values published in US20150147767A1.

Legend:
[1] = molecular target: surface of J774 A1 macrophages (BAG3 binding partner not identified) (murine); assay: flow cytometry on J774 A1 cells
[2] = molecular target: surface of J774 A1 macrophages (BAG3 binding partner not identified) (murine); assay: flow cytometry on J774 A1 cells, 14 nM FITC-rBAG3
[3] = molecular target: FITC-conjugated BAG3 recombinant protein (human) (UniProt O95817); assay: flow cytometry, blocking of 14 nM FITC-rBAG3 binding to J774 A1 cells by 420 nM F(ab′)2; negative control
Sequence of UniProt O95817 (O95817 whole entry): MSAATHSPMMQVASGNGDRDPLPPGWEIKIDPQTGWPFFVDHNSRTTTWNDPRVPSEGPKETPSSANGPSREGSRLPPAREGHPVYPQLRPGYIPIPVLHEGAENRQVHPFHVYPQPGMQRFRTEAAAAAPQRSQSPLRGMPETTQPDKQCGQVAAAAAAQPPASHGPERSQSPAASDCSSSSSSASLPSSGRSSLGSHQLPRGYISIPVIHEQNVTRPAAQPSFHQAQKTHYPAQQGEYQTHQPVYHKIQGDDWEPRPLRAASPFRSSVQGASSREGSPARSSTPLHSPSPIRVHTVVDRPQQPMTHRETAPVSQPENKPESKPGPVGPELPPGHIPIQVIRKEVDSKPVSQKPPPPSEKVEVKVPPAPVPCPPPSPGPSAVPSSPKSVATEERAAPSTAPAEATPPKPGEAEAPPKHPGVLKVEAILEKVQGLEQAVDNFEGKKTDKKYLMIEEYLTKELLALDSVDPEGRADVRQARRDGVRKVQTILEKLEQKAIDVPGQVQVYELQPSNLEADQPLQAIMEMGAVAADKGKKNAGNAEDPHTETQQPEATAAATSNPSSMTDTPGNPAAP

[4] = molecular target: surface of J774 A1 macrophages (BAG3 binding partner not identified) (murine); assay: flow cytometry on J774 A1 cells, negative control
[5] = molecular target: surface of J774 A1 macrophages (BAG3 binding partner not identified) (murine); assay: flow cytometry competition on J774 A1 cells; 625 nM peptide, 14 nM FITC-rBAG3 as competitor

Row | Molecule | % inhibition [5] [%] | % of positive cells [5] [%] | other results
1 | FITC-conjugated BAG3 recombinant protein (from UniProt O95817 1-575) |  |  | % of positive cells, FITC-BSA subtracted [1]: 11.1%; % of positive cells [2]: 15.7%
2 | F(ab′)2 fragments from rabbit IgG (antibody) |  |  | % inhibition [3]: 0%; % of positive cells [3]: 14.7%
3 | FITC-conjugated BSA (albumin from bovine serum) (from UniProt P02769 25-607) |  |  | % of positive cells [4]: 4.04%
4 | F(ab′)2 fragments from mouse IgG (antibody) |  |  | % inhibition [3]: 0%; % of positive cells [3]: 12.3%
5 | NPSSMTDTPGNPAAP [BAG3 peptide 4] | 93.8 | 0.68 | 
6 | SSPKSVATEERAAPS [BAG3 peptide 2] | 89.1 | 1.21 | 
7 | DKGKKNAGNAEDPHT [BAG3 peptide 3] | 47.2 | 5.86 | 
8 | DRDPLPPGWEIKIDPQ [BAG3 peptide 1] | 98.4 | 0.18 | 
